{"source": "the nanobody polyreactivity screen of Harvey et al. (2022)"}
{"experiment": "yeast display, Sf9 membrane polyspecificity reagent, FACS + sequencing; frameworks hold sequencing errors", "in_short": "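Sorting gates, low and high (top ~1%), were placed on anti-HA fluorescence to track expression and on streptavidin fluorescence to track reagent binding. A clone's polyreactivity label is taken from the gate it came out of. The reagent was 10% biotinylated, detergent-solubilized Sf9 membrane, applied for 1 hour at 4 °C to galactose-induced yeast display cells.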"}
{"sequence": "QVQLVESGGGLVQAGGSLRLSCAASGFILYSYAMGWYRQAPGKERELVAGISIGGITNYADSVKGRFTISRDNAKNTVYLQMNSLKPEDTAVYYCATDGTTYIWDGDYWGQGTQVTVSS", "polyreactivity (PSR sort gate)": "low polyreactivity"}
{"sequence": "QVQLVESGGGLVQAGGSLRLSCAASGFILYYYAMGWYRQAPGKERELVASISRRGGSTYYADSVKGRFTISRDNAKNTVYLQMNSLKPEDTAVYYCAATETTSRRFGYDYWGQGTQVTVSS", "polyreactivity (PSR sort gate)": "high polyreactivity"}
{"sequence": "QVQLVESGGGLVQAGGSLRLSCAASGFIMDNYAMGCYRQAHGKERELVAAISGSGGSTYYADSVKGRFTISRDNAKNTVYLQMNSLKPEDTAVYYCNRDRLLRQYDYWGQGTQVTVSS", "polyreactivity (PSR sort gate)": "high polyreactivity"}
{"sequence": "QVQLVESGGGLVQAGGSLRLSCAASGFIMDYNTMGGYRQAPGKERELVAAISSSGDTTYYAASVKGRFTISRDNAKNSVYLQMNCLKPDDTAVYYCAREYGDGYEYWGQGTQVTVSS", "polyreactivity (PSR sort gate)": "low polyreactivity"}
{"sequence": "QVQLVESGGGLVQAGGSLRLSCAASGFISAGYAMGWYRQAPGKERELVAAISRRGGRTYYADSVKGRFTISRDNAKNTVYLQLNSLKPEDTAVYYCAAGSPHSAFAGPYDYWGQGTQVTVSS", "polyreactivity (PSR sort gate)": "high polyreactivity"}
{"sequence": "QVQLVESGGGLVQAGGSLRLSCAASGFISARYAMGWYRQAPGKERELVAGISGGGGRTYYADSVKGRFTISRDNAKNTVYLQMNSLKPEDTAVFYCAATLQSRDRRFNYWGQGTQVTVSS", "polyreactivity (PSR sort gate)": "high polyreactivity"}
{"sequence": "QVQLVESGGGLVQAGGSLRLSCAASGFISFPYAMGWYRQAPGKERELDASITRSGGNTYYADSVKGRFTISRDNAKNTVYLQMNRLKPEDTAVYYCNAQIYTYRTGRGYSRLDYWGQGTQVTVSS", "polyreactivity (PSR sort gate)": "high polyreactivity"}
{"sequence": "QVQLVESGGGLVQAGGSLRLSCAASGFISRYYYMGWYRQAPGKERELVAAIRWSGDRTYYADSVKGRFTISRDNAKNTVYLLMNSLKPEDTAVYYCNADVVLGRSWRGYWGQGTQVTVSS", "polyreactivity (PSR sort gate)": "high polyreactivity"}
{"sequence": "QVQLVESGGGLVQAGGSLRLSCAASGFISSDYAMGWYRQAPGKEREFVAGISRGGGSTYYADSVKGRFTISRDHAKNTVYLQMISLKPEDTAVYYCNARTSLRKYQYYYWGQGTQVTVSS", "polyreactivity (PSR sort gate)": "high polyreactivity"}
{"sequence": "QVQLVESGGGLVQAGGSLRLSCAASGFISSHYAMGWYRQAPGKERELVAAISTNGGSTYYADSVKGRFTISRDNAKNTVYLQMNSLKPEDTAVYYCAAEFAVSFYWSWLGQDYNYWGQGTQVTVSS", "polyreactivity (PSR sort gate)": "high polyreactivity"}
{"sequence": "QVQLVESGGGLVQAGGSLRLSCAASGFISTINVMGWYRQAPGKEREMVAAMTYIDGSTFYADSVKGRFTISRDNAKNTVYLQMNSLKPEDTAVYYCAADLYQWGAVFLYVRSTGLDYWGQGTQVTVSS", "polyreactivity (PSR sort gate)": "low polyreactivity"}
{"sequence": "QVQLVESGGGLVQAGGSLRLSCAASGFISYFYAMGWYRQAPGKERELVAAISWNGARTYYADSVKGRFTISRDNAKNTVYLQMNSLKPEDTAVYYCNAGTFTRRRGLDYWGQGTQVTVSS", "polyreactivity (PSR sort gate)": "low polyreactivity"}
{"sequence": "QVQLVESGGGLVQAGGSLRLSCAASGFIVRRYAMGWYRQAPGKERELVAAITSSGTSTYYADSVKGRFTISRDTAKYTVYLQMNSLKPEDTAVYYCAAVYQYTHYYSNYRYWGQGTQVTVSS", "polyreactivity (PSR sort gate)": "high polyreactivity"}
{"sequence": "QVQLVESGGGLVQAGGSLRLSCAASGFIYARYAMGSYRQAPGKERELLAAISWSGARTYYADSVKGRFTISRDNAKNTVYLQMNSLKAEDTAVYYCAARRLSYSYDYWGQGTQVSVSS", "polyreactivity (PSR sort gate)": "high polyreactivity"}
{"sequence": "QVQLVESGGGLVQAGGSLRLSCAASGFIYGKNAMGWYRQAPGKERELVAAISQRGGSTYYADSVKGRFTISRDTAKNTVYLQMNSLKPEDTAVYYCAADGRRVVARYDYWGQVTQVTVSS", "polyreactivity (PSR sort gate)": "high polyreactivity"}
{"sequence": "QVQLVESGGGLVQAGGSLRLSCAASGFIYGYYAKGWYRQAPGKARELVAAISYSGGSTYYADSVKGRFTISRDNAKNTVYLQKNSLKPEDSAVYYCAAVYLGYIYSRYDYWGQGTQVTVSS", "polyreactivity (PSR sort gate)": "low polyreactivity"}
{"sequence": "QVQLVESGGGLVQAGGSLRLSCAASGFIYHTNAMGWYRPAPGKERELVAAISDSADITHYADSVKGRFTISRDYAKNTVYLQMNSLKPEDTAVYYCNTTGDPPAYDFAFEDWGQGTQVTVSS", "polyreactivity (PSR sort gate)": "low polyreactivity"}
{"sequence": "QVQLVESGGGLVQAGGSLRLSCAASGFIYSAYAMGWYRQAPGKERELVAAISYSGGTTYYADSVKGRFTISRDNAKNTVYLQMNSLKPEDTAVYYCAAGVGYWGQGTQVTVSS", "polyreactivity (PSR sort gate)": "high polyreactivity"}
{"sequence": "QVQLVESGGGLVQAGGSLRLSCAASGFIYTRNAMGWDRQAPGQERELVAAITSSGGSTYYADTVKGRFTISRDNAKNTVYLQMNSLKREDTAVYYCARGKSVGFNYWGQGTQVTVSS", "polyreactivity (PSR sort gate)": "high polyreactivity"}
{"sequence": "QVQLVESGGGLVQAGGSLRLSCAASGFNFARNTMGWYRQAPGKERELVAAISSSGGSTYYADSVKGRFTISRDNAKNTVYLQMNSLKPEDTAVYYCNKGYTGLYGYDYWGQGTQVTVSS", "polyreactivity (PSR sort gate)": "high polyreactivity"}
{"sequence": "QVQLVESGGGLVQAGGSLRLSCAASGFNFGTYAMGWYRQAPGKERELVAAISSGGSTYYADSVKGRFTISRDNAKNTVYLQMNSLKPEDTAVYYCAKEGGTYRIFNYWGQGTQVTVSS", "polyreactivity (PSR sort gate)": "low polyreactivity"}
{"sequence": "QVQLVESGGGLVQAGGSLRLSCAASGFNFQGNAMGWYIQAPGNERELVAAISSDGSTYYADSVKGRFTISRDNAKNTVELQMYSLKPEDTAVYYCAAEWWYYYPGYIITSYDYWGQGTQVTVSS", "polyreactivity (PSR sort gate)": "low polyreactivity"}
{"sequence": "QVQLVESGGGLVQAGGSLRLSCAASGFNFQRYAMGWYRQAPGKERELVAAISVRGTRTYYADSVKGRFTISRDKAKNTVYFQMYSLKPVDTAVYYCNADWERDVQDEYWGQGTHVTVSS", "polyreactivity (PSR sort gate)": "high polyreactivity"}
{"sequence": "QVQLVESGGGLVQAGGSLRLSCAASGFNFTGYTMGWYRQAPGTERELVAAISSSGGSTYYADSVKGRFTISRDNAKNTVYLQMNSLKPEDTAVDYCNAPRYRPGYWYDYWGQGTQVNVSS", "polyreactivity (PSR sort gate)": "high polyreactivity"}
{"sequence": "QVQLVESGGGLVQAGGSLRLSCAASGFNFTHYAMGWYRQAPGKERELVAAISRNGGSTYYADSVKGRFTISRDNAKNTVYLQMNSLKPEDTAVYYCAAVRHGVSLAGYYWGQGTQVTVSS", "polyreactivity (PSR sort gate)": "high polyreactivity"}
{"sequence": "QVQLVESGGGLVQAGGSLRLSCAASGFNFTTYAMGSYRHAPGKERELVAAISGRGGTTDYADSVKGRFTISRDNAKNTVYLHMNSLKPEATAVYYCAADGYPGDDYWGQGTQVTVST", "polyreactivity (PSR sort gate)": "high polyreactivity"}
{"sequence": "QVQLVESGGGLVQAGGSLRLSCAASGFNFYCNAMGWYRQAPGKERELVATIRYRGGRTYYADSVKGRFTISRDNEKNTVYLQMNSLKPEDTAVYYCNTRSVYHRYDYDYWGQGTQVTVSS", "polyreactivity (PSR sort gate)": "high polyreactivity"}
{"sequence": "QVQLVESGGGLVQAGGSLRLSCAASGFNFYSNAMGWYRQEPGKERELVADINRGGTSTYYADSVKGRFTISRDNAKNTVYLQMNSLKPEDTAVYYCNAGLRYRSRLWNIYWYDYWGQGTQVTVSS", "polyreactivity (PSR sort gate)": "high polyreactivity"}
{"sequence": "QVQLVESGGGLVQAGGSLRLSCAASGFNLKWYAMGWYRQAPGKERELVAAINDRGGNTYYADSVKGRFTISRDNAKNTVYLQMNSLKPEDTAVYYCAVRGKTYRPYYYWGQGTQVTVSS", "polyreactivity (PSR sort gate)": "high polyreactivity"}
{"sequence": "QVQLVESGGGLVQAGGSLRLSCAASGFNTRLYAMGWYRQAPGKEREFVAAISWDGTRTYYADSVKGRFTISRDTANKTFYLQMNSLKPEDTAVSYCNARRRQWQARYDYWGQGTQITVSS", "polyreactivity (PSR sort gate)": "high polyreactivity"}
{"sequence": "QVQLVESGGGLVQAGGSLRLSCAASGFNVRYYAMGWYRQAPGKERELVAAISSGGNTRYADSVKGRFTISRDNAKNTVYLQMNSLKPEDTAVYYCARRPGAWKYVYTGDYWGQGTQVTVSS", "polyreactivity (PSR sort gate)": "high polyreactivity"}
{"sequence": "QVQLVESGGGLVQAGGSLRLSCAASGFNYRYYAMGWYRQAPGKERELVAAIDYSGGSTNYADSVKGRFTISRDNAKNTVYLQMNSLNPEDTAVYYCNAEYTWHRGYDYWGQGTQVTVSS", "polyreactivity (PSR sort gate)": "low polyreactivity"}
{"sequence": "QVQLVESGGGLVQAGGSLRLSCAASGFNYSNAMGWYRQAPGKERELVAAITSRGGSTYYADSVKGRFTISRDNAKNTVYLQMNSLKPEDTAVYYCATKVWTRFIYYYWGQGTQVTVSS", "polyreactivity (PSR sort gate)": "high polyreactivity"}
{"sequence": "QVQLVESGGGLVQAGGSLRLSCAASGFSFEGYAMGWYRQAPGKERELVAAISSNGGRTYYADSVKGRFTISRDNAKNTVYVLMNSLKPEDTAVYYCNARRAYSGPDYDYYHGRRYDYWGQGTQVSVSS", "polyreactivity (PSR sort gate)": "low polyreactivity"}
{"sequence": "QVQLVESGGGLVQAGGSLRLSCAASGFSFTNYAMGWYRQAPGKERELVAAINRSGGRTYYADSVKGRFTISRDNAKNTVYLQMNSLKPEDTAVYYCAAYGRYYYIYDYWGQGTQVTVSS", "polyreactivity (PSR sort gate)": "high polyreactivity"}
{"sequence": "QVQLVESGGGLVQAGGSLRLSCAASGFTCTSNAMGWYRQAPGKERELVAAITFTGGRTYYADSVKGRFTISRDNAKNTVYLQMNSLKPEDTAVYYCNRVTAYYPTKFDYWGQGTQVTVSS", "polyreactivity (PSR sort gate)": "high polyreactivity"}
{"sequence": "QVQLVESGGGLVQAGGSLRLSCAASGFTFAFYTMGWYRQAPGKERELVAGITRSGTNTYYADSVKGRFTISRDNSKNTVYLQMNSLKPEDTSVYYCNADPRTGWYKYDYWGQGTQVTVSS", "polyreactivity (PSR sort gate)": "high polyreactivity"}
{"sequence": "QVQLVESGGGLVQAGGSLRLSCAASGFTFAGNAMGWDRPAPGKERELVAGISRRGGNTYYADSVKGRFTISRDTAKNTVYLQMNRLKPEDTAVYYCARYSSSYWGQGTQVTVSS", "polyreactivity (PSR sort gate)": "high polyreactivity"}
{"sequence": "QVQLVESGGGLVQAGGSLRLSCAASGFTFAGNTMGWYRQAPGKERELVAAINSGGSTHYADSVKGRFTISRDNAKNTVYLQMNSLKPEDTAVYYCADYLTRYGAYYWGQGTQVTVSS", "polyreactivity (PSR sort gate)": "high polyreactivity"}
{"sequence": "QVQLVESGGGLVQAGGSLRLSCAASGFTFAHNAMGWYRQATGKERELVAVISWSGGRTYYADSVKGRFTISRDNAMNTVYLQMNSLKPEDTAVYYCATRHSKFSYGYWGQGTQVTVSS", "polyreactivity (PSR sort gate)": "high polyreactivity"}
{"sequence": "QVQLVESGGGLVQAGGSLRLSCAASGFTFAPNAMGWYRQAHGKERELVAAISSASSTYYADSVKGRFTISRDNAKNTVYLQMNSLKPEDTAVYYCAAREGWGFYYWGQGTQGTVSS", "polyreactivity (PSR sort gate)": "high polyreactivity"}
{"sequence": "QVQLVESGGGLVQAGGSLRLSCAASGFTFAPYAMGWYRQAPGKERELVAAISSNGGSTYYADSVKGRFTISRDNAKNTVYLQMNSLKPGDTAVYYCAAPVRQSSYNRYDSWGQGTQVTVSS", "polyreactivity (PSR sort gate)": "high polyreactivity"}
{"sequence": "QVQLVESGGGLVQAGGSLRLSCAASGFTFAQYTMGWYRPAPGKERELVAAIRVGGGSTYYADSVKGRFTISRDNAKNTVYLQMNSLKPEDTAVYYCAKRTYSRKFRGAYNYWGQGTQVTVSS", "polyreactivity (PSR sort gate)": "high polyreactivity"}
